According to publication PMC4175280, “Characterization of proanthocyanidin metabolism in pea (Pisum sativum) seeds” (BMC Plant Biology, 2014):

What was measured:
[1] = target: T1, PsLAR (Lathyrus oleraceus, UniProt A0A076G360); experiment: coupled PsDFR/PsLAR assay, LC-MS of product; type: biochemical; conditions: NADPH, pH 6, 40°C
T1 construct: gene LAR
T1 sequence (A0A076G360 1-351): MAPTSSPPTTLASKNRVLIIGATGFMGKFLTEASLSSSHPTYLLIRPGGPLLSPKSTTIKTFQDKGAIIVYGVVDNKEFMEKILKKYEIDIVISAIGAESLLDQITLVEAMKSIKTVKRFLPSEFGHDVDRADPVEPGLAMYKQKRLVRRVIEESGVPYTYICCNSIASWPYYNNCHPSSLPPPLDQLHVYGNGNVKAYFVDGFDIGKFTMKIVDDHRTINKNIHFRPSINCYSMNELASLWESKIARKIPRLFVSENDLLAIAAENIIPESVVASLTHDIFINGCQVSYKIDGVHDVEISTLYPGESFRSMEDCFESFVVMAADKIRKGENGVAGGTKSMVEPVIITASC

[2] = substrate: Oc1cc(O)c2cc(O)c(-c3cc(O)c(O)c(O)c3)[o+]c2c1; experiment: HPLC-DAD of cis-flavan-3-ol product, Michaelis-Menten; type: biochemical, Lathyrus oleraceus; conditions: 20 mM NADPH, 100 mM Tris-HCl pH 7, 42°C, 20 min
From the text: (§1) HPLC-DAD of cis-flavan-3-ol product, Michaelis-Menten on PsANR

[3] = substrate: Oc1cc(O)c2cc(O)c(-c3ccc(O)c(O)c3)[o+]c2c1; experiment: as above; type: biochemical, Lathyrus oleraceus; conditions: 20 mM NADPH, 100 mM Tris-HCl pH 7, 42°C, 20 min
From the text: as §1

[4] = substrate: Oc1ccc(-c2[o+]c3cc(O)cc(O)c3cc2O)cc1; experiment: as above; type: biochemical, Lathyrus oleraceus; conditions: 20 mM NADPH, 100 mM Tris-HCl pH 7, 42°C, 20 min
From the text: as §1

Oc1cc(O)c2c(c1)O[C@H](c1ccc(O)c(O)c1)[C@@H](O)C2 [(+)-catechin] was tested, and the “coupled PsDFR/PsLAR assay, LC-MS of product” value ([1]; substrate made in situ from dihydroquercetin by PsDFR) was “Only co-incubation of PsDFR and PsLAR could synthesize compounds displaying [M + H]^+ ion for CT”.

With Oc1cc(O)c2c(c1)O[C@H](c1cc(O)c(O)c(O)c1)[C@@H](O)C2 [gallocatechin] the “coupled PsDFR/PsLAR assay, LC-MS of product” value ([1]; substrate made in situ from dihydromyricetin by PsDFR) was “co-incubation of PsDFR and PsLAR could synthesize compounds displaying [M + H]^+ ion for CT”.

B1: PsANR (Lathyrus oleraceus) (protein)
chain: MASIKEVGKKKACVIGGTGFVASILIKQLLEKGYAVNTTVRDLDNPKKISHLVALKSLGELNLFKAELTVDGDFDAPIAGCELVFQLATPVNFASQDPENDMIKPAIKGVLNVLKACAKAKEVKRVILTSSAAAVTINELKGEDHVMDETNWSDVEFLNAAKPPTWGYPASKVLAEKAAWEFAEKNDIDLITVIPTLTMGPYLTQDMPSSVGLAMSLITGNDFLVNALKGMQFLSGSISITHVEDICRAHIFVAEKESASGRYICCAQNTCVPELAKFFSKRYPQYKVPTKFEDCPSKAKLIIFFEKLIKEGFGFKYGIGETYAQTIEYLKIKGVLKK
For B1, the Km [2] was 183.6 ± 0.2 µM, the kcat/Km [2] was 4.3 M⁻¹ s⁻¹ and the Km [3] was 37.0 ± 0.2 µM. The kcat/Km [3] was 13.5 M⁻¹ s⁻¹, the Km [4] was 39.0 ± 0.1 µM and the kcat/Km [4] was 30.7 M⁻¹ s⁻¹.
